Measured values from article PMC5267525, “Sec3 promotes the initial binary t-SNARE complex assembly and membrane fusion” (Nature Communications, 2017).
Changes are numbered by the printed parent chain.

T1: GST-Sec3N (Sec3 N-terminus, a.a. 1–320) (yeast, UniProt P33332 1-320)
T1 construct: Sec3, yeast exocyst subunit, N-terminus a.a; 1-320; also called pG1860; source: E. coli BL21(DE3), purified (Glutathione Sepharose 4B)
T1 sequence (looked up): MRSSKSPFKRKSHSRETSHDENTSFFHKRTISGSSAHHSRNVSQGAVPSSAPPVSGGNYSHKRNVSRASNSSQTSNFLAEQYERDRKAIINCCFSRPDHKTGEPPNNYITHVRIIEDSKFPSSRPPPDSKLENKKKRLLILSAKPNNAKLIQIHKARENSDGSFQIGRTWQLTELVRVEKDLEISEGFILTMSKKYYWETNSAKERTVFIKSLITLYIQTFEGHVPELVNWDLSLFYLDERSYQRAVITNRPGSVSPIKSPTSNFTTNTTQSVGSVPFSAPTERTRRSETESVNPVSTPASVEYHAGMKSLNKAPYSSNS

T2: Sso2 (a.a. 1–270), as used in size-exclusion chromatography (yeast, UniProt P39926 1-270)
T2 construct: Sso2, yeast t-SNARE, a.a; The text says that this complex was later used for crystallization, for which the methods give Sso2 a.a; 36-227 with the His6 tag cleaved; the legend's limits are kept
T2 sequence (looked up): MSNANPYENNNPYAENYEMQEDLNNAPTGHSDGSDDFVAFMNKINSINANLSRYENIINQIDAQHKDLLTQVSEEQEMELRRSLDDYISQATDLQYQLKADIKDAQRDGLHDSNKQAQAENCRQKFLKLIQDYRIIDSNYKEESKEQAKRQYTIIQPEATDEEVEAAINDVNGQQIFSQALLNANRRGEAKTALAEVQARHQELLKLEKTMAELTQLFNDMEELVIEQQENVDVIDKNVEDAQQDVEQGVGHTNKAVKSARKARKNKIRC

T3: His6-Sso2-mutHL2 (a.a. 1–270, 170DVNGQ174 to 170GSSGG174) (yeast, UniProt P39926 1-270, 170DVNGQ174 to 170GSSGG174)
T3 construct: Sso2, yeast t-SNARE, cytosolic domain a.a; 1-270, mutated directly from pG707; also called pG1971
T3 sequence (looked up): T2 sequence (looked up) with D170G, V171S, N172S, Q174G

B1: Sso2 Habc and SNARE motif (a.a. 36–227) (domain or fragment, yeast, UniProt P39926 36-227, looked up)
chain: DFVAFMNKINSINANLSRYENIINQIDAQHKDLLTQVSEEQEMELRRSLDDYISQATDLQYQLKADIKDAQRDGLHDSNKQAQAENCRQKFLKLIQDYRIIDSNYKEESKEQAKRQYTIIQPEATDEEVEAAINDVNGQQIFSQALLNANRRGEAKTALAEVQARHQELLKLEKTMAELTQLFNDMEELVIE
notes: Sso2, yeast t-SNARE, Habc and the SNARE motif, a.a; 36-227; Cloned in pET15b; tag removed by thrombin; also called Sso2 (a.a. 36–227); source: E. coli BL21(DE3), purified (Ni-HiTrap, HiTrap-Q HP, Superdex-200); not shown: His6, N-terminal, cleaved
B2: Sso2 reconstituted in liposomes (natural protein, yeast, UniProt P39926 1-295, looked up)
chain: MSNANPYENNNPYAENYEMQEDLNNAPTGHSDGSDDFVAFMNKINSINANLSRYENIINQIDAQHKDLLTQVSEEQEMELRRSLDDYISQATDLQYQLKADIKDAQRDGLHDSNKQAQAENCRQKFLKLIQDYRIIDSNYKEESKEQAKRQYTIIQPEATDEEVEAAINDVNGQQIFSQALLNANRRGEAKTALAEVQARHQELLKLEKTMAELTQLFNDMEELVIEQQENVDVIDKNVEDAQQDVEQGVGHTNKAVKSARKARKNKIRCLIICFIIFAIVVVVVVVPSVVETRK
notes: Sso2, yeast t-SNARE, called the full-length Sso2 in the fusion assays; also called Sso2 liposomes; t-SNARE liposomes reconstituted with Sso2; source: reconstituted in POPC/DOPS liposomes
B3: Sec3 N-terminal domain (a.a. 75–320) (domain or fragment, yeast, UniProt P33332 75-320, looked up)
chain: SNFLAEQYERDRKAIINCCFSRPDHKTGEPPNNYITHVRIIEDSKFPSSRPPPDSKLENKKKRLLILSAKPNNAKLIQIHKARENSDGSFQIGRTWQLTELVRVEKDLEISEGFILTMSKKYYWETNSAKERTVFIKSLITLYIQTFEGHVPELVNWDLSLFYLDERSYQRAVITNRPGSVSPIKSPTSNFTTNTTQSVGSVPFSAPTERTRRSETESVNPVSTPASVEYHAGMKSLNKAPYSSNS
notes: Sec3, yeast exocyst subunit, N-terminal domain a.a; 75-320 (contains the PH domain); Cloned in the custom vector MalpET; tag cut off by tobacco etch virus protease; also called Sec3(a.a. 75–320); source: E. coli BL21(DE3), purified (Ni-HiTrap, HiTrap-Q HP, Superdex-200); not shown: MBP-His10, N-terminal, cleaved
B4: His6-Sso2 (cytosolic domain, a.a. 1–270) (domain or fragment, yeast, UniProt P39926 1-270, looked up)
chain: T2 sequence (looked up)
notes: Sso2, yeast t-SNARE, cytosolic domain a.a; 1-270; also called pG707
B5: GST-tagged Sec9 C-terminal SNARE domain (a.a. 414–651) (domain or fragment, yeast, UniProt P40357 414-651, looked up)
chain: EEARQQQEEDEAVDEIKQEIKFTKQSSVASTRNTLKMAQDAERAGMNTLGMLGHQSEQLNNVEGNLDLMKVQNKVADEKVAELKKLNRSILAVHVSNPFNSKRRRREREEQLKNRKIEEKLMREQTSQQLSQSTQRIEGAMNANNNISEVRERYQRKNVLEKAKRYQFENDEEDDEMELEIDRNLDQIQQVSNRLKKMALTTGKELDSQQKRLNNIEESTDDLDINLHMNTNRLAGIR
notes: Sec9, yeast t-SNARE (SNAP-23 homologue), C-terminal SNARE domain a.a; 414-651; also called GST-Sec9C; pG1067; source: E. coli BL21(DE3), purified (Glutathione Sepharose 4B)

Columns and labels:
Conditions in all cases: both partners purified
[1] = target: B3; experiment: crystal structure; crystal form 1, space group C222(1); 0.1 M HEPES pH 7.0, 0.2 M NaCl, 25% PEG 3350; 2.20 Å
[2] = target: T1, GST-Sec3N (Sec3 N-terminus, a.a. 1–320); experiment: co-sedimentation; liposomes containing Sso2 incubated with Sec9C in the presence or absence of Sec3N at 25 °C for 30 min; liposomes collected by sedimentation; SDS-PAGE, Coomassie blue; Sso2-free liposomes as control
[3] = target: T2, Sso2 (a.a. 1–270), as used in …; experiment: SEC; Superdex-200 16/60 column; proteins applied individually or in mixture, Sso2 with excess Sec3N
[4] = target: T1, GST-Sec3N (Sec3 N-terminus, a.a. 1–320); experiment: pull-down; GST-Sec3N on glutathione Sepharose with His6-Sso2 or His6-Sec9C, or with both in three orders of addition (simultaneous; Sec3N and Sso2 pre-incubated 30 min; Sso2 and Sec9C pre-incubated 2 h); 5 μg His6-Sec9C; Coomassie blue
[5] = target: B4; experiment: pull-down; time course: His6-Sso2 (2 μM) alone added to GST-Sec9C (20 μg) on glutathione Sepharose 4B, 100 μl, 25 °C; bound Sso2 quantified from Coomassie gels; apparent rate constant from a second-order fit
[6] = target: T3, His6-Sso2-mutHL2 (a.a. 1–270, …); experiment: as above
[7] = target: B4; experiment: pull-down; time course as a6, but His6-Sso2 (2 μM) pre-incubated with His6-Sec3N (2 μM) for 30 min at 25 °C before GST-Sec9C (20 μg) on glutathione Sepharose 4B; apparent rate constant from a second-order fit

B1: binds [1].

B2: binds [2].

B3: binds [3].

B4: binds [4].

For B5, the kon [5] was 15.2 ± 0.6 M⁻¹ s⁻¹, the binding result [6] was “binds” and the kon [7] was 200 ± 90 M⁻¹ s⁻¹.
